Test results published in patent US20210087291A1 (Hoffmann-La Roche, published 2021).
Changes are numbered by the printed parent chain. Values joined by “and” are separate entries in the source; they are usually repeats but may differ in a detail not shown here. Equal values may be shown once.

Tests used:
[1] = biological target: T1, cynomolgus FolR1 ECD-AcTev-Fcknob-Avi tag + Fc hole, biotinylated monomeric Fc fusion (cynomolgus, UniProt P0DOX5 223-449 = IgG part); assay: SPR, apparent KD, bivalent binding (avidity)
T1 construct: also called cyFolR1; cyno FolR1-Fc
Method: (§1) Binding of FolR1 binders as IgG or in the T-cell bispecific format to different recombinant folate receptors (human FolR1, 2 and 3, murine FolR1 and cynomolgus FolR1; all as Fc fusions) was assessed by surface plasmon resonance (SPR).
Recombinant biotinylated monomeric Fc fusions of human, cynomolgus and murine Folate Receptor 1 (FolR1-Fc) were directly coupled on a SA chip using the standard coupling instruction (Biacore, Freiburg/Germany). The immobilization level was about 300-400 RU. The anti-FolR1 IgGs or T cell bispecifics were passed at a concentration range from 2.1 to 500 nM with a flow of 30 μL/minutes through the flow cells over 180 seconds. The dissociation was monitored for 600 seconds. Bulk refractive index differences were corrected for by subtracting the response obtained on reference flow cell immobilized with recombinant biotinylated IL2 receptor Fc fusion. […] The binding curves resulting from the bivalent binding of the IgGs or T cell bispecifics were approximated to a 1:1 Langmuir binding and fitted with that model (which is not correct, but gives an idea of the avidity). The apparent avidity constants for the interactions were derived from the rate constants of the fitting using the Bia Evaluation software (GE Healthcare).

[2] = biological target: T1, cynomolgus FolR1 ECD-AcTev-Fcknob-Avi …; assay: SPR, monovalent, antibody captured by anti-Fab
Method: as §1
For affinity measurement, direct coupling of around 6000-7000 resonance units (RU) of the anti-human Fab specific antibody (Fab capture kit, GE Healthcare) was performed on a CM5 chip at pH5.0 using the standard amine coupling kit (GE Healthcare). Anti-FolR1 IgGs or T cell bispecifics were captured at 20 nM with a flow rate of 10 μl/min for 20 or 40 sec, the reference flow cell was left without capture. […] The dissociation phase was monitored for 240 sand triggered by switching from the sample solution to HBS-EP. The chip surface was regenerated after every cycle using a double injection of 60 sec 10 mM Glycine-HCl pH 2.1 or pH1.5. Bulk refractive index differences were corrected for by subtracting the response obtained on the reference flow cell 1. The affinity constants for the interactions were derived from the rate constants by fitting to a 1:1 Langmuir binding using the Bia Evaluation software (GE Healthcare).

cynomolgus Tim3 (ELISA) [3] = biological target: T2, cynomolgus Tim3 (ELISA) (cynomolgus, UniProt A0A2K5U3G7 22-193); assay: ELISA, cyno Tim3
T2 construct: also called Biochem Cyno; cyno TIM3
T2 sequence: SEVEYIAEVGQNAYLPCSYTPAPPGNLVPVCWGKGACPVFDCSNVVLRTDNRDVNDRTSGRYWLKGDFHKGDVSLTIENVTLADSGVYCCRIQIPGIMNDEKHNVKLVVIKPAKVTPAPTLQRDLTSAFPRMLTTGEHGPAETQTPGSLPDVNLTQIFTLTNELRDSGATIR

Tim3-ECD-His-Biotin [4] = biological target: T3, Tim3-ECD-His-Biotin (human, UniProt Q8TDQ0 22-202); assay: ELISA, human Tim3
T3 construct: also called human Tim3 (ELISA); Biochem Human

human TIM-3 on cells [5] = biological target: T4, human TIM-3 on cells (human, UniProt Q8TDQ0 22-301); assay: cell ELISA, CHO-Tim3
T4 construct: also called CHO-Tim3; rec CHOK1 cells expressing huTIM-3

human TIM-3 on cells [6] = biological target: T4, human TIM-3 on cells; assay: cell-based or functional assay
[7] = biological target: T5, huFc fused dimeric human Tim3-ECD (human, UniProt Q8TDQ0 22-202); assay: SPR Biacore, bivalent Tim3
T5 construct: also called huTim3Fc; bivalent Tim3
Method: (§2) Therefore, an anti-mouse IgG was immobilized by amine coupling to the surface of a (Biacore) CM5 sensor chip. The samples were then captured and hu/cy Tim3-ECD was bound to them. The sensor chip surface was regenerated after each analysis cycle. The equilibrium constant KD was finally gained by fitting the data to a 1:1 langmuir interaction model.
(§3) Flow cell temperature was set to 25° C. and sample compartment temperature to 12° C. The system was primed with running buffer. The samples were injected for 30 seconds with a concentration of 200 μg/ml and bound to the spots 1 and 5 of each flow cell, allowing the measurement of eight samples in parallel. Then a complete set of different (monomeric cyno, monomeric human and huFc fused dimeric human Tim3-ECD) concentrations (s. Table X) was injected over each sample for 240 s followed by a dissociation time of 30/1800 s (s. Table 1). Each analysis cycle (sample capture, spot 1 and 5—Tim3 ECD injection) was then regenerated with a 30 seconds long injection of Glycine-HCl pH 1.7. The flow rate was set to 30 μl/min for the whole run. Finally, the double referenced data was fitted to a 1:1 langmuir interaction model with the Biacore B4000 Evaluation Software.

Tim3-ECD-His-Biotin [8] = biological target: T3, Tim3-ECD-His-Biotin; assay: ELISA on Tim3-ECD-His-Biotin
Method: After washing (3×90 μl/well with PBST-buffer) 25 μl aTim3 samples or diluted (1:2 steps) reference antibody aTim3 F38-2E2 (Biolegend) was added and incubated 1 h at RT. After washing (3×90 μl/well with PBST-buffer) 25 μl/well sheep-anti-mouse-POD (GE NA9310V) was added in 1:9000 dilution and incubated at RT for 1 h while shaking at 400 rpm rotation. After washing (4×90 μl/well with PBST-buffer) 25 μl/well TMB substrate (Calbiochem, #CL07) was added and incubated until OD 1.5-2.5. Then the reaction was stopped by addition of 25 μl/well 1N HCL-solution.

monomeric human Tim3-ECD [9] = biological target: T6, monomeric human Tim3-ECD (human, UniProt Q8TDQ0 22-202); assay: SPR Biacore, monovalent Tim3
T6 construct: also called huTim3
Method: as §2, §3

human TIM-3 on cells [10] = biological target: T4, human TIM-3 on cells; assay: cell ELISA, CHO-K1 expressing human Tim3
Method: Then the reaction was stopped by addition of 25 μl/well 1N HCL-solution.

[11] = biological target: T7, cynomolgus TIM-3 on isolated cyno CD14+ monocytes (cynomolgus); assay: flow cytometry, cyno CD14+ monocytes cyno1
T7 construct: whole, on cells
From the text: (§4) CD14+ Monocytes were isolated from cynomolgus monkey anticoagulated peripheral blood (Covance) by density gradient centrifugation using Ficoll-Paque (GE Healthcare) (see General Protocols in the User Manuals or visit www.miltenyibiotec.com/protocols) and subsequent positive selection via NHP CD14 MicroBeads. First the CD14+ cells are magnetically labeled with CD14 MicroBeads. Then the cell suspension is loaded onto a MACS® Column which is placed in the magnetic field of a MACS Separator. The magnetically labeled CD14+ cells are retained in the column. The unlabeled cells run through, this cell fraction is depleted of CD14+ cells. After removal of the column from the magnetic field, the magnetically retained CD14+ cells can be eluted as the positively selected cell fraction. After centrifugation at 200×g for 10 min at room temperature the monocytes were harvested and used directly in binding assay or resuspended in freezing medium (10% DMSO, 90% FCS) at 1.0E+07 cells/ml and stored in liquid nitrogen.
(§5) 1×10⁵ CD14+ isolated cyno monocytes (50 μl/well) were put into 98 well-v bottom MTP in fresh culture medium and incubated with Redimune® NF Liquid for 15 min at RT to block unspecific binding. Than 50 μl/well of Alexa488 labeled anti-TIM3 (10 μg/ml in cell culture medium) were added and incubated for 1 h at 4° C. After washing and centrifugation MFI signals of stained cells were analyzed by BD Biosciences FACSCanto flow cytometer.

[12] = biological target: T7, cynomolgus TIM-3 on isolated cyno CD14+ …; assay: flow cytometry, cyno CD14+ monocytes cyno2
From the text: as §4, §5

[13] = biological target: T7, cynomolgus TIM-3 on isolated cyno CD14+ …; assay: flow cytometry, cyno CD14+ monocytes cyno3
From the text: as §4, §5

human TIM-3 on cells [14] = biological target: T4, human TIM-3 on cells; assay: flow cytometry, human CD14+ monocytes donor1
From the text: (§6) CD14+ Monocytes were isolated from anticoagulated peripheral blood of healthy donors by density gradient centrifugation using Ficoll-Paque (GE Healthcare) (see General Protocols in the User Manuals or visit www.miltenyibiotec.com/protocols) and subsequent positive selection via CD14 MicroBeads. First the CD14+ cells are magnetically labeled with CD14 MicroBeads. Then the cell suspension is loaded onto a MACS® Column which is placed in the magnetic field of a MACS Separator. The magnetically labeled CD14+ cells are retained in the column. The unlabeled cells run through, this cell fraction is depleted of CD14+ cells. After removal of the column from the magnetic field, the magnetically retained CD14+ cells can be eluted as the positively selected cell fraction. After centrifugation at 200×g for 10 min at room temperature the monocytes were harvested and used directly in binding assay or resuspended in freezing medium (10% DMSO, 90% FCS) at 1.0E+07 cells/ml and stored in liquid nitrogen.
(§7) 1×10⁵ CD14+ isolated human monocytes (50 μl/well) were put into 98 well-v bottom MTP in fresh culture medium and incubated with Redimune® NF Liquid for 15 min at RT to block unspecific binding. […] After washing and centrifugation MFI signals of stained cells were analyzed by BD Biosciences FACSCanto flow cytometer.

human TIM-3 on cells [15] = biological target: T4, human TIM-3 on cells; assay: flow cytometry, human CD14+ monocytes donor2
From the text: as §6, §7

human TIM-3 on cells [16] = biological target: T4, human TIM-3 on cells; assay: flow cytometry, human CD14+ monocytes donor3
From the text: as §6, §7

monomeric human Tim3-ECD [17] = biological target: T6, monomeric human Tim3-ECD; assay: SPR Biacore, antibody captured by anti-mouse IgG
Method: as §2, §3

[18] = biological target: T5, huFc fused dimeric human Tim3-ECD; assay: SPR Biacore, antibody captured by anti-mouse IgG
Method: as §2, §3

monomeric cyno Tim3-ECD = biological target: T8, monomeric cyno Tim3-ECD (cynomolgus, UniProt A0A2K5U3G7 22-195); assay: SPR Biacore, antibody captured by anti-mouse IgG
T8 construct: extracellular domain; also called cyTim3
T8 sequence: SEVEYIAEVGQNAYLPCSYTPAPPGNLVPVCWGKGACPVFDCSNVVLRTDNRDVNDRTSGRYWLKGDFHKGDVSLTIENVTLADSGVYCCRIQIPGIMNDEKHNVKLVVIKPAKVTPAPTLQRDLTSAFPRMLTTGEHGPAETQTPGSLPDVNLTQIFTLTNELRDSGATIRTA
Method: as §2, §3

cynomolgus Tim3 (ELISA) [19] = biological target: T2, cynomolgus Tim3 (ELISA); assay: ELISA, cyno Tim3; EC50 relative to the sample's max value
Tim3-ECD-His-Biotin [20] = biological target: T3, Tim3-ECD-His-Biotin; assay: ELISA, human Tim3; EC50 relative to the sample's max value
human TIM-3 on cells [21] = biological target: T4, human TIM-3 on cells; assay: cell ELISA, CHO-Tim3; EC50 relative to the sample's max value
human TIM-3 on cells [22] = biological target: T4, human TIM-3 on cells; assay: cell-based or functional assay; remark: listed apart in the source
human TIM-3 on cells [23] = biological target: T4, human TIM-3 on cells; assay: cell-based or functional assay; remark: listed apart in the source

B1: Farletuzumab (antibody, V domains shown)
VH: EVQLVESGGGVVQPGRSLRLSCSASGFTFSGYGLSWVRQAPGKGLEWVAMISSGGSYTYYADSVKGRFAISRDNAKNTLFLQMDSLRPEDTGVYFCARHGDDPAWFAYWGQGTPVTVSS
VL: DIQLTQSPSSLSASVGDRVTITCSVSSSISSNNLHWYQQKPGKAPKPWIYGTSNLASGVPSRFSGSGSGTDYTFTISSLQPEDIATYYCQQWSSYPYMYTFGQGTKVEIKR
Kd [1]: 0.65 nM
Kd [2]: 67.3 nM

B2: Tim3_0016 variant (Tim3_0018) (antibody, V domains shown)
VH: QVTLKESGPGILQPSQTLSLTCSFSGFSLSTSGMSVGWIRQPSGKGLEWLAHIWLNDDVFFNPALKRRLTISKDTSNNQVFLQIASVVTADTATYYCVRANGYLYALDYWGQGISVTVSS
VL: QIVLTQSPAIMSASPGQKVTITCSASSSVNYTQWYQQKLGSSPKLWIYDAFKLAPGVPARFSGSGTGTSYSLTISSMEAEDAASYFCHQWSSYPWTFGGGTKLEIK
notes: also called TIM3-0016 variant (0018); aTim3 0018
inflexion point (cynomolgus Tim3 (ELISA) [3]): 14.6 ng/mL
inflexion point (Tim3-ECD-His-Biotin [4]): 15.3 ng/mL
inflexion point (human TIM-3 on cells [5]): 29.4 ng/mL
IFN-gamma release in MLR at 1 µg/ml, % of IL-2 control (human TIM-3 on cells [6]): 12%
IFN-gamma release in MLR at 10 µg/ml, % of IL-2 control (human TIM-3 on cells [6]): 30%
IFN-gamma release in MLR at 40 µg/ml, % of IL-2 control (human TIM-3 on cells [6]): 36%
Kd [7]: 1.1 nM
EC50 (Tim3-ECD-His-Biotin [8]): 0.56 nM and 0.094 µg/mL
Kd (monomeric human Tim3-ECD [9]): 3.4 nM
EC50 (human TIM-3 on cells [10]): 0.52 nM and 0.087 µg/mL
MFI [11]: 301 MFI
MFI [12]: 480 MFI
MFI [13]: 417 MFI
specific binding MFI (human TIM-3 on cells [14]): 2330 MFI
specific binding MFI (human TIM-3 on cells [15]): 1820 MFI
specific binding MFI (human TIM-3 on cells [16]): 1940 MFI
Kd (monomeric human Tim3-ECD [17]): 3.4 nM
Kd [18]: 1.11 nM
Kd (monomeric cyno Tim3-ECD): 41.9 nM
EC50 (cynomolgus Tim3 (ELISA) [19]): 0.0146 µg/mL
EC50 (Tim3-ECD-His-Biotin [20]): 0.0161 µg/mL
EC50 (human TIM-3 on cells [21]): 0.0264 µg/mL

B3: Tim3_0016 (antibody, V domains shown)
VH: B2 VH with S19R, R67S, I114T
VL: B2 VL
notes: also called clone 0016
IFN-gamma release in MLR at 1 µg/ml, % of IL-2 control (human TIM-3 on cells [6]): 7%
IFN-gamma release in MLR at 10 µg/ml, % of IL-2 control (human TIM-3 on cells [6]): 22%
MFI [11]: 157 MFI
MFI [12]: 177 MFI
MFI [13]: 187 MFI
specific binding MFI (human TIM-3 on cells [14]): 2120 MFI
specific binding MFI (human TIM-3 on cells [15]): 1630 MFI
specific binding MFI (human TIM-3 on cells [16]): 1690 MFI
Kd (monomeric cyno Tim3-ECD): 21.6 nM

B4: Tim3_0022 (antibody, V domains shown)
VH: EVQLQESGPSLVKPSQTLSLTCSVTGDSIASAYWNWIRKFPGNKLEYMGYINYSGSTYYNPSLKSRISITRDTSQNQYYLQLNSVTTEDTATYYCVTGDYFDYWGRGTTLTVSS
VL: DIQMTQSPSSLSAYLGGKVTITCKARQDVRKNIGWYQHKPGKGPRLLIWYTSTLQSGIPSRFSGSGSGRDYSFNINNLEPEDIATYYCLQYDNLPFTFGTGTKLEIR
MFI [11]: 115 MFI
MFI [12]: 134 MFI
MFI [13]: 138 MFI
specific binding MFI (human TIM-3 on cells [14]): 1470 MFI
specific binding MFI (human TIM-3 on cells [15]): 1110 MFI
specific binding MFI (human TIM-3 on cells [16]): 1240 MFI
Kd (monomeric human Tim3-ECD [17]): 126 nM
Kd (monomeric cyno Tim3-ECD): 28.4 nM

B5: Tim3_0033 Fab-PE24 construct (Fab, V domains shown)
VH: QGQMHQSGAELVKPGSSVKLSCKTSGFTFSSSFISWLKQKPGQSLEWIAWIYAATGSTSYNQKFTNKAQLTVDTSSSAAYMQFSSLTTEDSAIYYCARHAGYPHYYAMDYWGQGTSVTVSS
VL: DIQMTQSPASLSASVGETVTITCRASENIFSNLAWYQQKQGKSPQLLVYSATNLGDGVPSRFSGSGSGTQFSLKINSLQPEDFGNYYCQHFYKIPFTFGTGTKLEIK
Max. killing, Pfeiffer cells (human TIM-3 on cells [22]): 99.8%
Max. killing, RPMI-8226 cells (human TIM-3 on cells [22]): 99.7%

B6: Tim3_0033 (antibody, V domains shown)
VH: B5 VH
VL: B5 VL
IFN-gamma release in MLR at 1 µg/ml, % of IL-2 control (human TIM-3 on cells [6]): 0%
IFN-gamma release in MLR at 10 µg/ml, % of IL-2 control (human TIM-3 on cells [6]): 30%
IFN-gamma release in MLR at 40 µg/ml, % of IL-2 control (human TIM-3 on cells [6]): 35%
internalization at 30 Min, RPMI-8226 (human TIM-3 on cells [23]): 75%
internalization at 60 Min, RPMI-8226 (human TIM-3 on cells [23]): 81%
internalization at 120 Min, RPMI-8226 (human TIM-3 on cells [23]): 82%
internalization at 240 Min, RPMI-8226 (human TIM-3 on cells [23]): 82%
internalization at 26 h, RPMI-8226 (human TIM-3 on cells [23]): 80%
Kd [7]: 3.1 nM
EC50 (Tim3-ECD-His-Biotin [8]): 1.32 µg/mL
EC50 (human TIM-3 on cells [10]): 3.71 µg/mL
MFI [11]: 71 MFI
MFI [12]: 81 MFI
MFI [13]: 83 MFI
specific binding MFI (human TIM-3 on cells [14]): 480 MFI
specific binding MFI (human TIM-3 on cells [15]): 328 MFI
specific binding MFI (human TIM-3 on cells [16]): 595 MFI
Kd [18]: 3.05 nM

B7: Tim3_0021 Fab-PE24 construct (Fab, V domains shown)
VH: QVQLQQSGPQLVRPGASVQISCKASGYSFTSYLLHWLKQRPGQGLEWIGMIDPSDSETRLNQKFKDKATLTVDKSSSTAYMQLSSPTSEDSAVYYCARDGYYAWYYFDCWGQGTTLTVSS
VL: DIVLTQSPATLSVTPGDRVSLSCRASQSIGNNLHWYQQKSHESPRLLIKYASHSISGIPSKFSGTGSGTDFTLSFNSVETEDFGMYFCQQSNSWPLTFGAGTKLELK
Max. killing, Pfeiffer cells (human TIM-3 on cells [22]): 98.4%

B8: Tim3_0021 (antibody, V domains shown)
VH: B7 VH
VL: B7 VL
IFN-gamma release in MLR at 1 µg/ml, % of IL-2 control (human TIM-3 on cells [6]): 101%
IFN-gamma release in MLR at 10 µg/ml, % of IL-2 control (human TIM-3 on cells [6]): 108%
IFN-gamma release in MLR at 40 µg/ml, % of IL-2 control (human TIM-3 on cells [6]): 112%
internalization at 30 Min, RPMI-8226 (human TIM-3 on cells [23]): 70%
internalization at 60 Min, RPMI-8226 (human TIM-3 on cells [23]): 75%
internalization at 120 Min, RPMI-8226 (human TIM-3 on cells [23]): 74%
internalization at 240 Min, RPMI-8226 (human TIM-3 on cells [23]): 78%
internalization at 26 h, RPMI-8226 (human TIM-3 on cells [23]): 77%
Kd [7]: 4.1 nM
EC50 (Tim3-ECD-His-Biotin [8]): 0.047 µg/mL
Kd (monomeric human Tim3-ECD [9]): 204 nM
EC50 (human TIM-3 on cells [10]): 0.073 µg/mL
MFI [11]: 348 MFI
MFI [12]: 473 MFI
MFI [13]: 399 MFI
specific binding MFI (human TIM-3 on cells [14]): 1130 MFI
specific binding MFI (human TIM-3 on cells [15]): 951 MFI
specific binding MFI (human TIM-3 on cells [16]): 1200 MFI
Kd (monomeric human Tim3-ECD [17]): 204 nM
Kd [18]: 4.07 nM
